Reference: patent US20040005324A1

What was measured:
Experiment in all cases: cell-based or functional assay
[1] = biological target: RSV F glycoprotein of MARM v1269 (strain A2 escape mutant, substitution at aa 389) (respiratory syncytial virus strain A2), P03420
[2] = biological target: RSV F glycoprotein of MARM v1302A/1 (strain A2 escape mutant, substitutions at aa 241/421) (respiratory syncytial virus strain A2), P03420
[3] = biological target: RSV F glycoprotein of MARM v1302A/6 (strain A2 escape mutant, substitutions at aa 241/421) (respiratory syncytial virus strain A2), P03420
[4] = biological target: RSV F glycoprotein of MARM v1308F (strain A2 escape mutant, substitutions at aa 241/421) (respiratory syncytial virus strain A2), P03420

B1: human monoclonal Fab RSVF2-5 (Fab, V domains shown)
VH: LEESGGDLVQPGRSLRLSCSTSGFSFGDYPVNWFRQAPGKGLEWLGIVRSRLYGGTLQYAASVEGRFTISRDDSKSIAYLHMNSLKSEDTAVYYCGVPVANIDYWGQGTLVTVSSASTKGPSS
VL: LTQPHSVSESLGKTVTISCTRAGGRIASNYVQWYQQRPGSSPTTVIYEDNQRPFGVPDRFSGSIDTSSNSASLTISGLKTEDEADYYCQSYDSENPWVFGGGTKLTVLG
Q: Which results are given for B1?
A: Dose for 60% plaque reduction [1]: < 0.3 µg/mL; Dose for 60% plaque reduction [2]: 1.4 µg/mL; Dose for 60% plaque reduction [3]: < 0.3 µg/mL; Dose for 60% plaque reduction [4]: 1 µg/mL
